{"source": "paper PMC7948508", "about": "“Comparison of human poly-N-acetyl-lactosamine synthase structure with GT-A fold glycosyltransferases supports a modular assembly of catalytic subsites” (The Journal of Biological Chemistry, 2020)", "proteins": {"B1": {"name": "catalytic domain of human β-1,3-N-acetylglucosaminyltransferase 2 (B3GNT2, residues 34–397) (domain or fragment, UniProt Q9NY97 34-397, looked up)", "chain": "EKNGKGEVIIPKEKFWKISTPPEAYWNREQEKLNRQYNPILSMLTNQTGEAGRLSNISHLNYCEPDLRVTSVVTGFNNLPDRFKDFLLYLRCRNYSLLIDQPDKCAKKPFLLLAIKSLTPHFARRQAIRESWGQESNAGNQTVVRVFLLGQTPPEDNHPDLSDMLKFESEKHQDILMWNYRDTFFNLSLKEVLFLRWVSTSCPDTEFVFKGDDDVFVNTHHILNYLNSLSKTKAKDLFIGDVIHNAGPHRDKKLKYYIPEVVYSGLYPPYAGGGGFLYSGHLALRLYHITDQVHLYPIDDVYTGMCLQKLGLVPEKHKGFRTFDIEEKNKNNICSYVDLMLVHSRKPQEMIDIWSQLQSAHLKC", "modifications": "N-glycans cut by EndoF1, leaving only a single GlcNAc residue attached to each Asn side chain (sequons N79, N89, N127, N173, N219); at Asn219 a Manβ1,4-GlcNAcβ1,4-GlcNAcβ- glycan is seen in the crystal structure", "notes": "also called B3GNT2 cat domain; B3GNT2 catalytic domain; source: HEK293S (GnTI-) cells, transient transfection, secreted; purified (Ni2+-NTA, TEV protease + EndoF1 cleavage, second Ni2+-NTA, Superdex 75); not shown: 8xHis, N-terminal, cleaved; AviTag, N-terminal, cleaved; superfolder GFP, N-terminal, cleaved"}}, "biological_target": "the molecule itself", "assay": "SEC-MALS; 20 μl at 1 mg/ml on Superdex 75; 25 mM HEPES (pH 7.4), 150 mM NaCl, 0.02% NaN3"}
{"protein": "B1", "values": [{"measurement": "stoichiometry N", "value": 2}]}
